Assay [1] deals with Hemagglutinin (HA) of Avian 29/05/06 H5N1 (inactivated vaccine) (Influenza A virus Avian 29/05/06 H5N1). In words: cell-based or functional assay.
The target in assay [2] is Hemagglutinin (HA) of Influenza SW [change] 1089/09 swine pandemic H1N1 (inactivated subunits, vaccine) (Influenza A virus SW [change] swine pandemic H1N1). In words: cell-based or functional assay.

In the case of “Lactoferrin from bovine milk (bLf) (from UniProt P24627 20-708)”, the HI titre in assay [1] was 2900 fM; in assay [2], 46.5 fM.

Consider “… (SEQ ID NO: 2), bLf C-lobe peptide 506-522”, for which the HI titre came out at 70 fM in assay [1] and 46 fM in assay [2].

Regarding “… (SEQ ID NO: 1), bLf C-lobe peptide 418-429”, the results for the HI titre in assay [1] and in assay [2] were 18 fM and 5.8 fM, respectively.

The values above are taken from patent US20140322196A1.
